{"source": "paper PMC5826319", "about": "“Control of the Nucleotide Cycle in Photoreceptor Cell Extracts by Retinal Degeneration Protein 3” (Frontiers in Molecular Neuroscience, 2018)", "binders": {"B1": {"name": "Retinal degeneration protein 3 (RD3), human, His6-tagged (natural protein, UniProt Q7Z3Z2 1-195, looked up)", "chain": "MSLISWLRWNEAPSRLSTRSPAEMVLETLMMELTGQMREAERQQRERSNAVRKVCTGVDYSWLASTPRSTYDLSPIERLQLEDVCVKIHPSYCGPAILRFRQLLAEQEPEVQEVSQLFRSVLQEVLERMKQEEEAHKLTRQWSLRPRGSLATFKTRARISPFASDIRTISEDVERDTPPPLRSWSMPEFRAPKAD", "notes": "The forward primer puts a few extra vector or primer residues before the first Met; also called RD3 - His6; His-tagged RD3"}}, "key": {"[1]": {"target": "T1, Guanylate kinase (GUK), mouse, isoform 1 (mouse, UniProt Q64520-2 1-219)", "T1 construct": "it gives an expected theoretical mass of 22 kDa, which fits about 198 aa better than the printed 219 aa; also called recombinant GUK; GUK1", "T1 sequence (looked up)": "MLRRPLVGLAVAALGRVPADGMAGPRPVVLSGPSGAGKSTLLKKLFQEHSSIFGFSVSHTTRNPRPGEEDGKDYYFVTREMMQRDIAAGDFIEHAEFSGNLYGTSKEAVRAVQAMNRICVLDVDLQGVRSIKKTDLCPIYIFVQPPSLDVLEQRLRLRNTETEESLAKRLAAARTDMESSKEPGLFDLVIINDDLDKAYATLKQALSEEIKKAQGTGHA", "experiment": "back-scattering interferometry (BSI); free solution, label-free, nothing immobilised; RD3 (or TEV protease) 0 to 300 nM titrated into lysate supernatant of stable GUK HEK-293T cells (0.1 ug/ul) in 20 mM phosphate buffer pH 7.0, 150 mM NaCl, 0.005% Tween 20; overnight at 4°C; titration of lysate without GUK subtracted; apparent KD, Hill fit", "settings": "one partner purified"}, "[2]": {"target": "T2, Guanylate kinase (GUK) in a soluble extract from bovine rod outer segments (bovine (endogenous in rod outer …, UniProt P46195 1-198))", "T2 sequence (looked up)": "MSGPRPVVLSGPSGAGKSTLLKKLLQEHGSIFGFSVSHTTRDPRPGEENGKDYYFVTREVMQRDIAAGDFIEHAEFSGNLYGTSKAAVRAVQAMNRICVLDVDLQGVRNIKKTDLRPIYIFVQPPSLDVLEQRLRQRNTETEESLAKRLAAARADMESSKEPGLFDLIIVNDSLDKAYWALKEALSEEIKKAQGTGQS", "experiment": "cell-based or functional assay"}, "[3]": {"target": "T3, Guanylate kinase (GUK) from porcine brain (porcine, UniProt P31006 1-198)", "T3 sequence (looked up)": "T2 sequence (looked up) with S2G, G3S, G29S, R116Q, R153K, V170I, G194A, Q197H", "experiment": "cell-based or functional assay"}, "[4]": {"target": "the molecule itself", "experiment": "cross-linking; purified RD3 (0.1 ug) with 0.5 mM BS3 for 2 min at room temperature, stopped with Tris-HCl pH 7.5; SDS-PAGE and anti-RD3 immunoblot; monomer to dimer"}}, "note": "Substitutions are numbered along the chain they refer to.", "data": [{"binder": "B1", "values": [{"measurement": "Kd", "setting": "[1]", "result": "~0.1", "unit": "µM"}, {"measurement": "guanylate kinase activity (5'-GMP to GDP, coupled spectrophotometric assay at 340 nm), RD3 0 to 3.5 uM", "setting": "[2]", "result": 2, "unit": "fold"}, {"measurement": "guanylate kinase activity (5'-GMP to GDP, coupled spectrophotometric assay at 340 nm), RD3 0 to 3.5 uM", "setting": "[3]", "result": "~10", "unit": "fold"}, {"measurement": "stoichiometry N", "setting": "[4]", "result": 2}]}]}
